Molecular target: α-synuclein (human, UniProt P37840 1-140)
Assay: immunofluorescence microscopy, co-localisation in SK-MEL13 cells
Protocol: For immunofluorescence imaging, cells were first seeded onto 16 mm diameter circular sterile coverslips in 12-well culture plates and left to adhere overnight. All coverslips were sterilised with 100% (v/v) ethanol prior to use and allowed to dry. Cells were washed twice in PBS before being fixed in 4% (w/v) paraformaldehyde (diluted in PBS) at room temperature for 10 minutes. PFA was removed and the coverslips were washed twice in PBS. Coverslips were then permeabilised with 0.2% (v/v) NP40 in PBS for 3 min. Cells were then blocked by washing twice and a 15-minute incubation in 1% (w/v) BSA/PBS. Coverslips were then incubated for 1.5 hr at room temperature with a 1:100 dilution of anti-α-synuclein antibody (610786, BD Biosciences) in a humidified chamber. They were then washed 3 times (for 10 minutes each) in 0.2% (w/v) BSA/PBS before being incubated with goat anti-mouse-IgG alexa-fluor 594 conjugated secondary antibody (A-11005, Thermo Fisher Scientific) at a dilution of 1:500 for 1 hour at 37° C., protected from light. Coverslips were then washed three times in 0.2% (w/v) BSA/PBS for 10 minutes each with the first wash containing a 1:15,000 dilution of DAPI. […]
The interaction of NbSyn87 and alpha-synuclein was determined in extracts and cells, with alpha-synuclein knockout cells included as controls for a clean alpha-synuclein IP. […]

B1: GFP-NbSYN87 (VHH)
VHH: QVQLQESGGGSVQTGGSLRLSCVASGYSGYMAWFRQAPGKEREGIAAIYRGDKITYYAHSVQGRFTISQANAKNTVYLLMNSLKPEDTAIYYCAARRVVADSPLLSKTYAYWGQGTQVTVSS
notes: Transiently transfected into SK-MEL13 cells; also called GFP-tagged NbSyn87; not shown: GFP tag
Q: Does B1 bind?
A: binds

Reference: patent US20250059527A1 (UNIVERSITY OF DUNDEE, published 2025)
